Patent US20050069542A1 (Human Genome Sciences, published 2005)

T1: flag-tagged soluble TL3 (amino acids 105-251 of SEQ ID NO:234) (Homo sapiens (Human), UniProt O75888 105-250)
T1 construct: Heterologous flag-tagged control protein, immobilized in the ELISA; also called flagged tagged TL-3; not shown: Flag tag
T1 sequence: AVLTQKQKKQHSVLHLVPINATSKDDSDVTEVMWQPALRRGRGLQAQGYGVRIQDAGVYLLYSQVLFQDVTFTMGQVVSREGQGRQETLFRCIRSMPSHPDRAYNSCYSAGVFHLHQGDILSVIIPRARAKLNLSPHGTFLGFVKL

B1: GMCC119 (scFv)
scFv: EVQLVQSGPEVKKPGASVKVSCKASNYTFTTYDISWVRQAPGQGLEWMGWISTYSGNTKYAQKFQGRVTMTRDTSTSAAYMELRNLRSDDTAVYFCARDIRVWRGSGSVHYFDPWGRGTTVTVSSGGGGSGGGGSGGGGSAQSALTQPRSVSGSPGQSVTISCTGTSNDVGGYNFVSWYQQHPGKAPKLMVYNVSKRPSGVPDRFSGSKSGNTASLTISGLQAEDEADYYCSSYAHSYTLVFGGGTKVTVLG
B2: GMCC118 (scFv)
scFv: EVQLVQSGGGLVKPGGSLRLSCTASGFSFTNAWMSWVRQAPGKGLEWVGRIKSRNDGGATDYAAPVKGRFTISRDDSKNTLYLQMNSLKTDDTAVYYCTTDNFPLRFLEWLSHPDYWGQGTMVTVSSGGGGSGGGGSGGGGSAQAVLTQPSSVSVSPGQTVTITCSGEKLDNKYISWYQQRPGRSPILVIYQDRKRPSGIPERFSGSNSGNTATLTITGSQPLDEADYYCQAWDSSTAWEFGGGTKLTVLG
B3: GMCC112 (scFv)
scFv: QVQLVQSGGGLVQPGGSLRLSCAASGFSFSTYAMSWVRQAPGKGLEWVSGVSDGGDTFYADSVRGRFTLSRDNAKNTLFLQMNSLTAEDTATYYCAKEIARIGVPNFDHWGQGTLVTVSSGGGGSGGGGSGGGGSALETTLTQSPGTLSLSPGDRATLSCRASQSIRNNDVAWYQQKPGQAPRLLIYSASRRATDIPDRFSGSASGTDFTLTISRLEPEDFAMYYCQQYGGSASFGQGTRLEIKR
B4: GMCC127 (scFv)
scFv: QVQLVQSGGGVVRPGGSLRLSCAASGFTFDDYGMSWVRQAPGKGLEWVSGINWNGGSTGYADSVKGRFTISRDNAKNSLYLQMNSLRAEDTAVYYCARRRYALDYWGRGTLVTVSSGGGGSGGGGSGGGGSALSSELTQDPAVSVALGQAVRITCQGDSLRTNYASWYQQRPGQAPVLVIRGNNNRPSGIPDRFSGSNSGDTVSLTITGAQAEDEADYYCNSRDTSGYHYVFGTGTKLTVLG
B5: GMCC114 (scFv)
scFv: EVQLVESGPEVKKPGSSVKVSCKASGAAAFSSYAISWVRQAPGRGLEWMGGIIPISDTPKYAHKFQGRVTITADESTTTVFMEVSGLRSDDTAVYYCATTTRYGSGTYDYMDVWGQGTMVTVSSGGGGSGGGGSGGGGSALSSELTQDPAVSVALGQTVRITCQGDSLRSYYASWYQQKPGQAPVLVFYGKNKRPSGIPDRFSGSTSGNTASLSITGALADDEADYYCHSRDTSGAQILFGGGTKLTVLG
B6: GMCC126 (scFv)
scFv: QVQLQESGPGLVKPSQTLSLSCAVSGFSVTSGHYWGWIRQSPGKGLEWIGNIYHTGSTRYNPSLESRVSMSVDTSKNQFSLRLTSVTAADTAIYYCARVGRGQHLVRGDFDYWGRGTLVTVSSGGGGSGGGGSGGGGSAQSVLTQPPSISVSPGQTASITCSGDELGHKYASWYQQKPGQSPVVVVYQDNKRPSGIPERFSGSSSGNTATLTISGTQAVDEADYFCQAWDSSAVVFGGGTKLTVLG
B7: GMCC131 (scFv)
scFv: QVQLQESGPGLVKPSETLSLTCSVSGGSIRSHYWSWMRQPPGKGLEWIGYVYYTGSTNYNPSLKSRVTMSVDTSKNQFSLNLSSVTAADTAIYYCARFPYSSGSNPLDYWGRGTLVTVSSGGGGSGGGGSGGGGSAQSVLTQPPSVSAAPGQRVTISCTGSSSNIGARYDVHWYQHLPGTAPKLLIYGDSNRPSGVPDRFSGSKSGTSASLAITGLQPEDEADYYCQSYDSSLSGVVFGGGTKVTVLG
B8: GMBC612 (scFv)
scFv: EVQLVESGGGVVQPGGSLRLSCAASGFSFSSYGMQWVRQAPGKGLEWVAFIRYDGSIKYYADSVKGRFTVSRDNSKNTLYLQMNSLRAEDTAVYYCARGYRIVDYWGQGTLVTVSSGGGGSGGGGSGGGGSDIQMTQSPSTLSPSIGDRVTITCRASEGIYHWLAWYQQKPGKAPKLLIYKASSLASGAPSRFSGSGSGTDFTLTISSLQPDDFATYYCQQYSNYPLTFGGGTKLEIKR
B9: GMCC142 (scFv)
scFv: EVQLVQSGAEVKKPGASVTISCKASGYTFTAYYIYWVRQAPGQGLEWMGMSNPNGGYTVYPPNFLGRVTTTPDTSTNTIYMELRSLRSEDTAVYYCARGRGRAPSNAFDFWGRGTLVTVSSGGGGSGGGGSGGGGSALSSELTQDPAVSVALGQTVRITCQGDSLKFYYASWYQQKPGQAPVLVLHGKNNRPSGIPDRFSGSTSRDTASLTITGTQAEDEADYYCNSRDNSDNIVFGTGTKLTVLG
B10: GMCC125 (scFv)
scFv: EVQLVQSGGGLVKPGGSLRLSCAASGFSFSDYSMHWIRQAPGKGLEWLSHIGTSTSYTNYADSVKGRFTISRDNAKNSFYLQMNSLRVDDTAVYFCARGFGGLRGYFDYWGQGTLVTVSSGGGGSGGGGSGGGGSALSSELTQDPAVSVALGQTVKITCQGDRLRRFYASWYQQKPGQAPLLLIYGKNSRPSGIPDRFSGSTSGATASLTITGAQAEDEADYYCNSRDSSGSLHSVFGTGTKVTVLG
B11: GMCC129 (scFv)
scFv: EVQLVETGGGLAQPGGSLRLSCEASGFTFNNYAMSWVRQAPGKGLEWVSGISISGYSTFYTDSVQGRFTISRDNSKNTLYLQMNSLGVDDTAVYYCAKRRGEGGDFDYWGRGTMVTVSSGGGGSGGGGSGGGGSALSSELTQDPAVSVALGQTVRITCQGDSLRGYYASWYQQKAGQAPVLVIYGKNNRPSGIPDRFSGSSSGNTASLTITGAQAEDEADYYCYSRDRSGNHLGMFGGGTKVTVLG
B12: GMCC138 (scFv)
scFv: EVQLVETGPGLVKPSQTLSLTCTVSGGSISSGGYYWSWIRQVPGKGLEWIGYNFYNGSTYFNPSLKSRATISIDTTKNQFSLKLSSVTAADTAVYYCARGNGYRYGRWFDPWGRGTLVTVSSGGGGSGGGGSGGGGSALSYELTQPPSVSVSPGQTARITCSGDALPKQYAYWYQQKPGQAPVLVISKDSERPSGIPERFSGSSSGTTVTLTISGVQAEDEADYYCQSADSSGTYWVFGGGTKVTVLG
B13: GMCC124 (scFv)
scFv: QVTLKESGAEVKKPGASVKVSCKASGYTFTDNALHWVRQAPGQRPEWMAWINTANGNTRYSQKFQGRLTITRDTSASTAFMDLSSLRSEDTAVYYCARQKAYKNYYYYYGMDVWGQGTLVTVSSGGGGSGGGGSGGGGSAQSVVTQPPSVSAAPGQKVTISCSGSSSNIGNNYVSWYQQLPGTAPKLLIYENNKRPSGIPDRFSGSQSGTSATLGISGLQTGDEADYYCGTWDSSLRAGVFGGGTKLTVLG

Biological target: T1, flag-tagged soluble TL3 (amino acids …)
Assay: phage ELISA on immobilized flag-tagged soluble TL3
Procedure, shortened: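 Phage displaying scFvs selected against flag-tagged GMAD were screened by ELISA against immobilized flag-tagged soluble TL3 (residues 105-251) as a heterologous flag-tagged counter-target, to check that binding is GMAD-specific.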

Binder	binding result
B1	no binding
B2	no binding
B3	no binding
B4	no binding
B5	no binding
B6	no binding
B7	no binding
B8	no binding
B9	no binding
B10	no binding
B11	no binding
B12	no binding
B13	no binding
